Source: PMC4344507, “Structural and functional characterization of a cell cycle associated HDAC1/2 complex reveals the structural basis for complex assembly and nucleosome targeting” (Nucleic Acids Research, 2015)

Biological target: the molecule itself
Test: crystal structure; DNTTIP1 (56–147), hanging drops at 22°C, 100 mM sodium acetate pH 4.6, 14% propan-2-ol; MAD phasing with SeMet protein; P212121

B1: Human DNTTIP1 (56–147) (domain or fragment, UniProt Q9H147 56-147, looked up)
chain: MTTSFTDPAISMDLLRAVLQPSINEEIQTVFNKYMKFFQKAALNVRDNVGEEVDAEQLIQEACRSCLEQAKLLFSDGEKVIPRLTHELPGIK
notes: DNTTIP1, human, residues 56-147; Native and selenomethionine substituted protein were both crystallized; six molecules (three dimers) in the asymmetric unit; also called DD; N-terminal dimerization domain; source: E. coli Rosetta-pLysS or B834(DE3), purified (Ni-NTA, Resource Q, Superdex S75)
  stoichiometry N: 2
